Test results as given in US7217548B2, “N-acetylglucosaminlytransferase and polynucleotide encoding the same” (National Institute of Advanced Industrial Science and …, priority 2000, dated 2007).

Tested on: T1, CC(=O)N[C@@H](C)C(=O)N[C@@H](C)C(=O)N1CCC[C@H]1C(=O)N[C@H](C(=O)N1CCC[C@H]1C(=O)N[C@H](C(=O)N[C@@H](C)C(=O)N[C@@H](C)C(=O)N1CCC[C@H]1C(N)=O)C(C)C)[C@@H](C)O[C@H]1O[C@H](CO)[C@@H](O)[C@H](O)[C@@H]1O
T1 construct: 595 amino acids from 66: Ser thereof (66: Ser to 660: Thr), respectively; Ig kappa chain secretory signal (N); made in house; host or cells: HEK293T (transient, secreted into serum-free medium)
Test: Substrate specificity and kinetic parameters of solubilized human OMGnT enzyme (L)
Format: biochemical
Details: other: 125 mM MOPS pH7.3, 0.2 mM UDP-GlcNAc, 7.5 mM MnCl2, 37° C., 2 hours, pH 7.3
Experimental: […] […] The reaction mixture was then filtered with a filter Ultrafree-MC (Millipore) having a pore size of 0.22 μm to remove solids, and analyzed by Wakopak 5C18-200 column (4.6×250 mm, Wako Pure Chemical Industries, Ltd.). The separation was carried out using concentration gradient with Solution A and Solution B at a flow rate of 1.0 ml/min. […] Peptide detection was carried out at 214 nm, and the radioactivity of each fraction was assayed using a liquid scintillation counter.
The activity of GnT-1 was assayed with a method by Yoshida et al. [Yoshida, S., Suzuki, M., Yamano, S., Takeuchi, M., Ikenaga, H., Kioka, N., Sakai, H., and Komano, T., Glycobiology, (1999), 9, 53–58] as described below. A 20 μl reaction solution was prepared by adding an enzyme source thereto so as to have a final concentration of 100 mM MES (pH 6.0), 20 mM MnCl2, 5 μM Manα1–6(Manα1–3)Manα1–6(Manα1–3)Manβ1–4GlcNAcβ1–4GlcNAc-PA(M5GN2-PA; Takara Shuzo, PA-Sugar Chain 017), 1 mM UDP-GlcNAc, 100 mM GlcNAc, 5 mM AMP, 1% Triton X-100, and 0.2% BSA. The reaction solution was incubated at 37° C. for 1 hour, and the reaction was terminated in boiling water. Thereafter, the reaction solution was analyzed by a reverse phase HPLC (Cosmosil 5C18-AR column) available from Nacalai Tesque. […]

Sequence of His-Xpress-sOMGnT(L) (Homo sapiens; M623V) (chain, as listed by the source M623V): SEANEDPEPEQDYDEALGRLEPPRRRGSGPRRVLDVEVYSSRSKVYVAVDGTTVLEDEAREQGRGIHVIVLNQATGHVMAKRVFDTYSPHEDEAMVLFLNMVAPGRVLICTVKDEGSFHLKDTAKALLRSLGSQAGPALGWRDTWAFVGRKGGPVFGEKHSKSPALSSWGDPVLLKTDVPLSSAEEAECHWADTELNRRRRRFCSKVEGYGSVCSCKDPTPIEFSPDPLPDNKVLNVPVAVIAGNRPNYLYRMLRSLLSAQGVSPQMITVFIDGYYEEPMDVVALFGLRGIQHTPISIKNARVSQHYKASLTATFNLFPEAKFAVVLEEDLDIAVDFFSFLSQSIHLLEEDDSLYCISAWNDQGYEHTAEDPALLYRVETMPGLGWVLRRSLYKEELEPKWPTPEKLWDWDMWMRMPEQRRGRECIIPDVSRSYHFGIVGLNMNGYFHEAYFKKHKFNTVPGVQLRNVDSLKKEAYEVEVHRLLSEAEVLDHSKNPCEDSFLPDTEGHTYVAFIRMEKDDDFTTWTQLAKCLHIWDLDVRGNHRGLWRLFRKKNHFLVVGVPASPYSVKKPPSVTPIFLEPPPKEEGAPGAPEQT

Substance: His-Xpress-sOMGnT(L) (Homo sapiens; M623V)
- Km: 1850 µM
